Measurements published in patent publication US20170044545, “APTAMER FOR BONDING TO AUTOTAXIN AND INHIBITING BIOLOGICAL ACTIVITY OF AUTOTAXIN, AND USE FOR SAME” (RIBOMIC INC., published 2017).

How the values were obtained:
[1] = biological target: FGF2 (UniProt P09038 P09038:135-288); test: SPR; FGF2 immobilized about 1100 RU; specificity control; conditions: tags: PeproTech
Description: Whether the nucleic acids of SEQ ID NOs: 8 and 9 bind to autotaxin was evaluated by the surface plasmon resonance method. For the measurement, Biacore T100 manufactured by GE Healthcare was used, and the measurement was performed by the method shown below. About 2700 RU autotaxin was immobilized on a sensorchip surface of CM4 chip by using an amino coupling kit. The flow rate was 20 μL/min, and nucleic acids (20 μL) prepared to 0.3 μM were injected as an analyte. As a running buffer, solution A was used. In Table 1, nucleic acids showing a binding amount of not more than 10% of that of the aptamer of SEQ ID NO: 4 were considered not binding and marked with (−), and ones not less than that were considered binding and marked with (+).
Whether the aptamer shown in SEQ ID NO: 16(23) has a binding activity to FGF2 (PeproTech) was confirmed by the surface plasmon resonance method. Autotaxin was immobilized on a flow cell 2 and FGF2 was immobilized on a flow cell 3 (about 1100 RU), and the aptamer was injected. The rest was performed similarly to Example 2.

[2] = biological target: T1, Autotaxin (ENPP2, NPP2) (Homo sapiens, UniProt Q13822 Q13822:36-863); test: inhibition
[3] = biological target: T1, Autotaxin (ENPP2, NPP2); test: inhibition; text prints 3' CCUGGA, listing ccucgga
[4] = biological target: T1, Autotaxin (ENPP2, NPP2); test: inhibition; listing sequence lacks U7 printed in text
[5] = biological target: T1, Autotaxin (ENPP2, NPP2); test: inhibition; pNP-TMP 1 mM, autotaxin 0.3 nM, 37 C 24 h, solution A

Sequence of FGF2 (P09038 135-288, one chain of several): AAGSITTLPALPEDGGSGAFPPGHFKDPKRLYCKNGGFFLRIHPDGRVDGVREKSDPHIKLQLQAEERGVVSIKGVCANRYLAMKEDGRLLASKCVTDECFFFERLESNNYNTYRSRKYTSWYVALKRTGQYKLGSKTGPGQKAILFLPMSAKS

UCUGAGGGAAACAGGUUUUGCUCCUCGGA (mixed, as 16(22) with 5' 40 kDa PEG (GL2-400GS2)-ssH linker instead of 5' idT) [SEQ 16(23)]
binding result [1]: no binding
IC50 [2]: 1.1 nM

UCUGAGGGAAACAGGUUCUGCUCCUCGGA (ssRNA, 2'-F pyrimidines, 2'-OH purines) [SEQ 46]
IC50 [3]: 50 nM

UCUGAGUGAAACAGGUUUUGCUGCUCGGA (ssRNA, 2'-F pyrimidines, 2'-OH purines [2'-F at all C and U; A and G 2'-OH]) [SEQ 48]
IC50 [4]: 44 nM

B1: SEQ 4 aptamer (ssRNA)
RNA: GGGACCGCACUCUAAACGCUCUGAGGGAAACAGGUUUUGCUCCUCGGAGCGUGGACGAAGUGAGACGUAUCCG
modifications: 2'-F pyrimidines, 2'-OH purines
IC50 [5]: 7 nM
